Source: patent US20200339690A1 (JOUNCE THERAPEUTICS, published 2020)

B1: J-19 (antibody, human IgG4 S228P, kappa, V domains shown)
VH: QVTLKESGPGILQPSHTLSLTCSFSGFSLNTYAMGVSWIRQPSGKGLEWLASIWWNGNKYNNPSLKSRLTVSKDTSNNQAFLKVTSVDTADTATYYCAHSRIIRFTDYVMDAWGQGASVTVSS
VL: DIQMTQSPASLSTFLGEPVTIECRASEDIYNDLAWYQQKPGKSPQLLIYNANSLHTGVPSRFSGSGSGTQYSLKINSLQSEDVASYFCQQYYDYPLTFGSGTKLEIKR
notes: Human IgG4 chimera from a rat immunization; also called J-19.h
B2: J-17 (antibody, human IgG4 S228P, kappa, V domains shown)
VH: QIQLVQSGPELKKPGETVKISCKASGYTFTTYGLSWVKQTPGKGLKWMGWINTYSGVPTYTDDFKGRFAFSLETSASTAYLQINNLKNEDTATYFCARPYDFDQVGFAYWGQGTLVTVSA
VL: SIVMTQTPKFLLVSAGDRVSITCKASQTVSSDVAWYQQKAGQSPKLLIYYASNRYTGVPDRFTGSGYGTDFTFTISTVQAEDLAVYFCQQDYSSPFTFGGGSKLEIKR
notes: Human IgG4 chimera of murine origin; also called J-17.h
B3: J-11 (antibody, human IgG4 S228P, kappa, V domains shown)
VH: QVQLQQSGAELMKPGASVKLSCKATGYILTGYWIEWVKQRPGHGLEWIGEILPGSGSTNYNENFKGKATFTADTSSNTAYMQLSSLTTEDSAIYYCARAVLGYFDYWGQGTTLTVSS
VL: DIVMTQSHKFMSTSVGDRVSITCKASQDVSTAVAWYQQKPGQSPKLLIYWASTRHTGVPDRFTGSGSGTDYTLTISSVQAEDLALYYCHQHYSTYTFGGGTKLEIKR
notes: Human IgG4 chimera of murine origin; also called J-11.h

Tests used:
[1] = biological target: T1, Rhesus Monocytes / Rhesus Neutrophils (Macaca mulatta); experiment: flow cytometry, rhesus whole blood, neutrophils
T1 construct: cell surface, primary blood cells; also called LILRB2+ populations in rhesus whole blood

human LILRA1 = biological target: T2, human LILRA1 (human, UniProt O75019 17-489); experiment: flow cytometry, LILRA1 CHOs
T2 construct: Over-expressed on CHO-s cells; also called hLILRA1

[2] = biological target: T3, human LILRB2 expressed on cells (human, UniProt Q8N423 22-597); experiment: cell-based or functional assay
human LILRB5 = biological target: T4, human LILRB5 (human, UniProt O75023 24-590); experiment: flow cytometry, LILRB5 CHOs
T4 construct: Over-expressed on CHO-s cells; also called hLILRB5

human LILRB4 = biological target: T5, human LILRB4 (human, UniProt Q8NHJ6 22-448); experiment: flow cytometry, LILRB4 CHOs
T5 construct: Over-expressed on CHO-s cells; also called hLILRB4

human LILRB2-His = human LILRB2-His (human, UniProt Q8N423 22-460); experiment: SPR, Sierra Sensors MASS-2; antibody captured on anti-human Fc, LILRB2-His 65 to 0.27 nM, 1:1 Langmuir fit
Protocol: Using a Mass-2 (Sierra Sensors) high capacity amine chip preimmobilized with AffiniPure Goat Anti-Human IgG, Fcγ Fragment Specific antibody, humanized antibodies were captured on the anti-human surface and then binding to human LILRB2-His was measured by flowing six different concentrations from 65 to 0.27 nM of the analyte over the antibody surface. The anti-LILRB2 surface was removed (10 mM Glycine, pH 2.0) and recaptured between all concentrations or buffer only cycles. The data was analyzed using the Sierra Analyzer software (version 3.1.14). All curves were double subtracted and fit to a 1:1 Langmuir Fit.

human LILRA3 = biological target: T6, human LILRA3 (human, UniProt Q8N6C8 24-439); experiment: flow cytometry, LILRA3 CHOs
T6 construct: Over-expressed on CHO-s cells; also called hLILRA3

[3] = biological target: T3, human LILRB2 expressed on cells; experiment: blocking of HLA-A2 tetramer on LILRB2 CHOs, flow cytometry, mAb 10 ug/mL
Protocol: (§1) In the secondary screen, 1×10⁵ CHO-s cells over-expressing human LILRB2 were plated in 96-well round-bottom tissue culture-treated plate and washed twice with 1×DPBS (Gibco) and incubated with 10 μg/mL primary antibody (anti-LILRB2 mAbs or control) prepared in 50 μL FACS buffer (1×DPBS containing 2% HI-FBS (Sigma)+0.05% Sodium Azide). After incubation with mAbs for 30 minutes at 4° C., cells were washed twice in FACS buffer and then resuspended in 50 μL of FACS buffer containing 5 μg/mL APC-conjugated HLA-A2 or HLA-G tetramer (Fred Hutch). Cells were incubated protected from light for 30-60 minutes at 4° C. After incubation with tetramer, cells were washed in FACS buffer and re-suspended in fix buffer (1.5% paraformaldehyde diluted in 1×DPBS). Samples were analyzed using the Celesta flow cytometer analyzer (BD Biosciences). Data represent percent tetramer blocked by mAbs relative to tetramer alone, calculated according to the following equation: […]

human LILRB3 = biological target: T7, human LILRB3 (human, UniProt O75022 24-631); experiment: flow cytometry, LILRB3 CHOs
T7 construct: Over-expressed on CHO-s cells; also called hLILRB3

[4] = biological target: T3, human LILRB2 expressed on cells; experiment: flow cytometry, LILRB2 CHOs
[5] = biological target: T1, Rhesus Monocytes / Rhesus Neutrophils; experiment: flow cytometry, rhesus whole blood, monocytes
human LILRA6 = biological target: T8, human LILRA6 (human, UniProt Q6PI73 24-481); experiment: flow cytometry, LILRA6 CHOs
T8 construct: Over-expressed on CHO-s cells; also called hLILRA6

[6] = biological target: T9, Cyno Monocytes / Cyno Neutrophils (Macaca fascicularis); experiment: flow cytometry, cyno whole blood, monocytes
T9 construct: cell surface, primary blood cells; also called LILRB2+ populations in cyno whole blood

human LILRA2 = biological target: T10, human LILRA2 (human, UniProt Q8N149 24-483); experiment: flow cytometry, LILRA2 CHOs
T10 construct: Over-expressed on CHO-s cells; also called hLILRA2

[7] = biological target: T3, human LILRB2 expressed on cells; experiment: flow cytometry, human whole blood, neutrophils
[8] = biological target: T3, human LILRB2 expressed on cells; experiment: blocking of HLA-G tetramer on LILRB2 CHOs, flow cytometry, mAb 10 ug/mL
Protocol: as §1

[9] = biological target: T3, human LILRB2 expressed on cells; experiment: flow cytometry, human whole blood, monocytes
human LILRA5 = biological target: T11, human LILRA5 (human, UniProt A6NI73 42-299); experiment: flow cytometry, LILRA5 CHOs
T11 construct: Over-expressed on CHO-s cells; also called hLILRA5

[10] = biological target: T9, Cyno Monocytes / Cyno Neutrophils; experiment: flow cytometry, cyno whole blood, neutrophils
human LILRB1 = biological target: T12, human LILRB1 (human, UniProt Q8NHL6 24-650); experiment: flow cytometry, LILRB1 CHOs
T12 construct: Over-expressed on CHO-s cells; also called hLILRB1

human LILRA4 = biological target: T13, human LILRA4 (human, UniProt P59901 24-499); experiment: flow cytometry, LILRA4 CHOs
T13 construct: Over-expressed on CHO-s cells; also called hLILRA4
T13 sequence (P59901 other isoform, or with tags, fused parts or gaps limits assumed): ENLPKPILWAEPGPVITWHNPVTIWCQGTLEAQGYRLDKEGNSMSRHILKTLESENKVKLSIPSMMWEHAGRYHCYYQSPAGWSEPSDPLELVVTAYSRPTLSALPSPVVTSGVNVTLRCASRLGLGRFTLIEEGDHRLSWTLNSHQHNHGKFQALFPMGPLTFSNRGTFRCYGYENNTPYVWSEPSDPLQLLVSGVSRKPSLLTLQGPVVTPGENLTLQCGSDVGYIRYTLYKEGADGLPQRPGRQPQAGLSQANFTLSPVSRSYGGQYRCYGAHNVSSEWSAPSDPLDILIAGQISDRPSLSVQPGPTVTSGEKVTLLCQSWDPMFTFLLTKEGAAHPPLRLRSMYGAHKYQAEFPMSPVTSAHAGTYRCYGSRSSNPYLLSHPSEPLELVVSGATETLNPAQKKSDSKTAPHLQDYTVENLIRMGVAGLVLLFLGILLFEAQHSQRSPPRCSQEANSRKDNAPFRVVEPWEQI

T6 sequence (Q8N6C8 24-439 limits assumed): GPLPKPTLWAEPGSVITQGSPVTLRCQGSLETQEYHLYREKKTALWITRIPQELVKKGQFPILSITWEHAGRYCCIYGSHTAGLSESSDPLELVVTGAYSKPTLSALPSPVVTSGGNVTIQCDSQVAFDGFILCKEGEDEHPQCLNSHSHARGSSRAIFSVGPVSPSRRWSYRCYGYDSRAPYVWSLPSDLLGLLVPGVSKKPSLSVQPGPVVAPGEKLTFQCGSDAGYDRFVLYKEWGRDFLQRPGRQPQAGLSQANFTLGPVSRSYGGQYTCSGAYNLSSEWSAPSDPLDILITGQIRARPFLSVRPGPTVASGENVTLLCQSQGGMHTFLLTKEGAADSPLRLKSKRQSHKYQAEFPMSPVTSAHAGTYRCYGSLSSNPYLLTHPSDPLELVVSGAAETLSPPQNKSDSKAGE
T10 sequence (Q8N149 24-483 S135L limits assumed): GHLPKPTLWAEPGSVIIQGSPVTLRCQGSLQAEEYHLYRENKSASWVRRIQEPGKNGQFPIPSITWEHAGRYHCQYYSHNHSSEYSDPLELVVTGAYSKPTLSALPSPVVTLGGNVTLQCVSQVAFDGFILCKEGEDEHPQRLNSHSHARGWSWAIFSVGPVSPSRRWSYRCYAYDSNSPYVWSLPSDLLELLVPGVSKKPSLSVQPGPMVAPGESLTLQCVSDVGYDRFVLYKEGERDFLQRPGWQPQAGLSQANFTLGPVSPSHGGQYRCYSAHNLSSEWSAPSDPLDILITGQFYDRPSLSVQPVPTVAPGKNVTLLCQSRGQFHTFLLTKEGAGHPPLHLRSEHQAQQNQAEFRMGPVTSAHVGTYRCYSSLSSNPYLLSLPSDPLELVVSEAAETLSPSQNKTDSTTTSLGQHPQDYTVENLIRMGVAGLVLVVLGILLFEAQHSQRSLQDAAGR
T2 sequence (O75019 17-489 limits assumed): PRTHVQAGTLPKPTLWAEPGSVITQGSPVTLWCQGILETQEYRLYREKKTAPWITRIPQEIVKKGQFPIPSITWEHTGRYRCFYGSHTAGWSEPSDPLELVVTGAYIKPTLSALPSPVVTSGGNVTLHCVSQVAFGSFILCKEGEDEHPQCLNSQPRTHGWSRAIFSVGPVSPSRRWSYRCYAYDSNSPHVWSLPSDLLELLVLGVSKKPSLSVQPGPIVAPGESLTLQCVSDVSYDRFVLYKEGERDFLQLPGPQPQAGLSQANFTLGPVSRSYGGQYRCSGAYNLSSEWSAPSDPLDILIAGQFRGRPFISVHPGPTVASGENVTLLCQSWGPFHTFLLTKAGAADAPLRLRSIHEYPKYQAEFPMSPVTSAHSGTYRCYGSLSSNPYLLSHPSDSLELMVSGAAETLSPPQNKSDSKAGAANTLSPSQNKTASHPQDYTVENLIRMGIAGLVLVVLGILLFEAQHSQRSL
T12 sequence (Q8NHL6 24-650 limits assumed): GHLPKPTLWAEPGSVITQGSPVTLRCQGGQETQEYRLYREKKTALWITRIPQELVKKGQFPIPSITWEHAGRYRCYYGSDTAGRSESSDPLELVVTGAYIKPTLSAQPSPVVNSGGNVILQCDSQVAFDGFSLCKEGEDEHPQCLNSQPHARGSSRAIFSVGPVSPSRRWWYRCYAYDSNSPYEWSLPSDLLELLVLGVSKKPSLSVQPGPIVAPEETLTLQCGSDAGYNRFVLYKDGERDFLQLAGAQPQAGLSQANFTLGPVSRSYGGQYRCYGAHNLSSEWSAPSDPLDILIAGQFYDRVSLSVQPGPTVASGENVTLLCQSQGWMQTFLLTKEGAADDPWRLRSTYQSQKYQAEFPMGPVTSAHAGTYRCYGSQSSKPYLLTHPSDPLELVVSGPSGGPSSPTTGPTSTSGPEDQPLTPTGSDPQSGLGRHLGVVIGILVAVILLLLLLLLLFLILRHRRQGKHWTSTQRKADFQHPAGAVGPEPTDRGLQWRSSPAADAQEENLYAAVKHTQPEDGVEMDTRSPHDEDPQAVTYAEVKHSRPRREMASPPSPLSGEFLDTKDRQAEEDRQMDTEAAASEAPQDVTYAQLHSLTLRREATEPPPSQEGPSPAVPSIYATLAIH
T3 sequence (Q8N423 other isoform, or with tags, fused parts or gaps limits assumed): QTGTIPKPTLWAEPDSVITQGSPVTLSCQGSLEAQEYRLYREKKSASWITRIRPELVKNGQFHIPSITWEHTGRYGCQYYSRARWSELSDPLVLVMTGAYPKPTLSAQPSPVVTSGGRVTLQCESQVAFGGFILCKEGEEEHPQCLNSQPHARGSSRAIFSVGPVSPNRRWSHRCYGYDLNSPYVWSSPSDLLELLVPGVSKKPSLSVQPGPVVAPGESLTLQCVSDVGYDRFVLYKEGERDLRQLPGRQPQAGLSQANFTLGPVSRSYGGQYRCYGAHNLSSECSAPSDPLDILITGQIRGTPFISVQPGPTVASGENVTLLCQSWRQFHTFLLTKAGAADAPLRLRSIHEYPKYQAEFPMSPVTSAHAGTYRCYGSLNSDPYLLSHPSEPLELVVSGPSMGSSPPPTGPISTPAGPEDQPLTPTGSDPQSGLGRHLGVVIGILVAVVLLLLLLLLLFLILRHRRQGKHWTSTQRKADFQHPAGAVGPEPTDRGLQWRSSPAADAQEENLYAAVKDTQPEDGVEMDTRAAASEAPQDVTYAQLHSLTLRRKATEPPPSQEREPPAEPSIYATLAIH
T11 sequence (A6NI73 42-299 limits assumed): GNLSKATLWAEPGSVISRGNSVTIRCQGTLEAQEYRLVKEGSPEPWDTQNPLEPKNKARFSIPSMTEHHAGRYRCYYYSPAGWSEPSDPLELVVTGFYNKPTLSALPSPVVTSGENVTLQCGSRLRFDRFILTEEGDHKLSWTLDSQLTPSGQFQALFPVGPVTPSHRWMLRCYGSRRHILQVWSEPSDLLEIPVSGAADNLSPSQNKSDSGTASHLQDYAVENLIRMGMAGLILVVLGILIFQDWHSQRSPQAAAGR
T4 sequence (O75023 24-590 P542R limits assumed): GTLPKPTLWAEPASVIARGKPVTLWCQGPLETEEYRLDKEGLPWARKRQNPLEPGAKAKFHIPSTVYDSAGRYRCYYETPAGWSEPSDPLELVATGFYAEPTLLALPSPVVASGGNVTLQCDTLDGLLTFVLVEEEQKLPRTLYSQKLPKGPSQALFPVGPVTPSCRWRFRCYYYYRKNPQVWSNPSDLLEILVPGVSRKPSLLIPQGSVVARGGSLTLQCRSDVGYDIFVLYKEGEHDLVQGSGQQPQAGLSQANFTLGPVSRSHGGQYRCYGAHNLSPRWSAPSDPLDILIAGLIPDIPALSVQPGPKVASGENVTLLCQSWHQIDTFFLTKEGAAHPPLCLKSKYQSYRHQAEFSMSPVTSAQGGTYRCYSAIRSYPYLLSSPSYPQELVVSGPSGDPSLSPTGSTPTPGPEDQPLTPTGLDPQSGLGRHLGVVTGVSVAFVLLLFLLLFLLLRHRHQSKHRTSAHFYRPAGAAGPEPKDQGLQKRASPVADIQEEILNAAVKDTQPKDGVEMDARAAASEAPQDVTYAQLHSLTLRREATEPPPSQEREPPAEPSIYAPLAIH
Sequence of human LILRB2-His (Q8N423 other isoform, or with tags, fused parts or gaps): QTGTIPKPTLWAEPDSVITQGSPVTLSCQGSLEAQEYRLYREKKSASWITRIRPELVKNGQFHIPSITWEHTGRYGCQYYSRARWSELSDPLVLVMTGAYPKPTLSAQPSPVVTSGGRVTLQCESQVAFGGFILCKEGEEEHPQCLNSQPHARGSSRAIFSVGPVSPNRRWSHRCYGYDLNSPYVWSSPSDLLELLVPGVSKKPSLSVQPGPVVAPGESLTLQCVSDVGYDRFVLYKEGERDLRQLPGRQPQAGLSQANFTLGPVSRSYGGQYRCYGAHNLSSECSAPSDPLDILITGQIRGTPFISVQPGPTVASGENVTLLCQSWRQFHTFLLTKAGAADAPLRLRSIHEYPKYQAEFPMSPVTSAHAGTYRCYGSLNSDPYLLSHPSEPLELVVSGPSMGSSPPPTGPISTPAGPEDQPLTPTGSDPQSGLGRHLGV
T8 sequence (Q6PI73 24-481 limits assumed): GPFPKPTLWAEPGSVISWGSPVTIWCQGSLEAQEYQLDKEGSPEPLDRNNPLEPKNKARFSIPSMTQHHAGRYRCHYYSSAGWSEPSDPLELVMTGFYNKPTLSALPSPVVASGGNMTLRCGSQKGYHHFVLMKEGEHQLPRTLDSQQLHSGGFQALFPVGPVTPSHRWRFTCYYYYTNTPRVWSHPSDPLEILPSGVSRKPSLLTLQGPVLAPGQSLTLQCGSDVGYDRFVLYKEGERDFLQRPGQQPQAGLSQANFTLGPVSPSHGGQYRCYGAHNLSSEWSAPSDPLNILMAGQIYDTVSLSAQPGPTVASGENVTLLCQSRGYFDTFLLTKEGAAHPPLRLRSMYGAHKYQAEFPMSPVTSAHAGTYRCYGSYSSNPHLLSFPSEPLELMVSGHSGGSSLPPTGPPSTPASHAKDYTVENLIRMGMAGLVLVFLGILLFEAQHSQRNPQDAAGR

| Binder | Rhesus Neutrophils binding (fold over iso) [1] [fold over iso] | CCL2 production (fold over LPS alone) [2] [fold over LPS alone] | IL-6 production (fold over LPS alone) [2] [fold over LPS alone] | IL-10 production (fold over LPS alone) [2] [fold over LPS alone] | TNFa production (fold over LPS alone) [2] [fold over LPS alone] | binding (fold over iso) (human LILRB5) | binding result (human LILRB5) | binding (fold over iso) (human LILRB4) | binding result (human LILRB4) | Kd (human LILRB2-His) [nM] | kon (human LILRB2-His) [M⁻¹ s⁻¹] | binding (fold over iso) (human LILRA3) | binding result (human LILRA3) | HLA-A2:LILRB2 CHOs blocking (% blocked) [3] [% blocked] | binding (fold over iso) (human LILRB3) | binding result (human LILRB3) | binding (fold over iso) [4] [fold over iso] | Rhesus Monocytes binding (fold over iso) [5] [fold over iso] | binding (fold over iso) (human LILRA6) | binding result (human LILRA6) | further results |
| --- | --- | --- | --- | --- | --- | --- | --- | --- | --- | --- | --- | --- | --- | --- | --- | --- | --- | --- | --- | --- | --- |
| B1 | 21.9 | 1.69 | 2.72 | 0.8 | 8.9 | 1.19 | no binding | 1.03 | no binding | 2.62 | 515000 | 0.97 | no binding | 95.3 | 1.09 | no binding | 3.78 | 6.79 | 1.07 | no binding | binding (fold over iso) (human LILRA1): -3.31 fold over iso; binding result (human LILRA1): no binding; koff (human LILRB2-His): 0.00135 s⁻¹; Cyno Monocytes binding (fold over iso) [6]: 17.9 fold over iso; binding (fold over iso) (human LILRA2): -0.51 fold over iso; binding result (human LILRA2): no binding; Human Neutrophils binding (fold over iso) [7]: 4.5 fold over iso; HLA-G:LILRB2 CHOs blocking (% blocked) [8]: 97 % blocked; Human Monocytes binding (fold over iso) [9]: 12.3 fold over iso; binding (fold over iso) (human LILRA5): -0.62 fold over iso; binding result (human LILRA5): no binding; Cyno Neutrophils binding (fold over iso) [10]: 2.35 fold over iso; binding (fold over iso) (human LILRB1): 1.05 fold over iso; binding result (human LILRB1): no binding; binding (fold over iso) (human LILRA4): -26.8 fold over iso; binding result (human LILRA4): no binding |
| B2 | 1.44 | 1.85 | 2.57 | 0.89 | 8.12 | 1.03 | no binding | 1 | no binding | 2.85 | 1.56e+06 | 1.35 | no binding | 93.4 | 0.99 | no binding | 3.68 | 1.41 | 0.94 | no binding | Cyno Monocytes binding (fold over iso) [6]: 0.92 fold over iso; binding (fold over iso) (human LILRA2): -1.05 fold over iso; binding result (human LILRA2): no binding; Human Neutrophils binding (fold over iso) [7]: 4.55 fold over iso; HLA-G:LILRB2 CHOs blocking (% blocked) [8]: 96.6 % blocked; Human Monocytes binding (fold over iso) [9]: 11.3 fold over iso; binding (fold over iso) (human LILRA5): 0.82 fold over iso; binding result (human LILRA5): no binding; Cyno Neutrophils binding (fold over iso) [10]: 0.87 fold over iso; binding (fold over iso) (human LILRB1): 1.05 fold over iso; binding result (human LILRB1): no binding; binding (fold over iso) (human LILRA4): -36.5 fold over iso; binding result (human LILRA4): no binding |
| B3 | 0.64 | 0.96 | 3.06 | 0.81 | 7.61 | 1.22 | no binding | 1.03 | no binding | 2.47 | 370000 | 1.02 | no binding | 94.4 | 1.09 | no binding | 3.49 | 0.88 | 1 | no binding | binding (fold over iso) (human LILRA1): -1.63 fold over iso; binding result (human LILRA1): no binding; koff (human LILRB2-His): 0.000913 s⁻¹; Cyno Monocytes binding (fold over iso) [6]: 0.71 fold over iso; binding (fold over iso) (human LILRA2): -2.52 fold over iso; binding result (human LILRA2): no binding; Human Neutrophils binding (fold over iso) [7]: 2.89 fold over iso; HLA-G:LILRB2 CHOs blocking (% blocked) [8]: 99.9 % blocked; Human Monocytes binding (fold over iso) [9]: 8.54 fold over iso; binding (fold over iso) (human LILRA5): 1.34 fold over iso; binding result (human LILRA5): no binding; Cyno Neutrophils binding (fold over iso) [10]: 0.94 fold over iso; binding (fold over iso) (human LILRB1): 1.07 fold over iso; binding result (human LILRB1): no binding; binding (fold over iso) (human LILRA4): -1.27 fold over iso; binding result (human LILRA4): no binding |
